# Measurements taken from patent US20080268487.
# Like-named read-outs stand apart in the source and are kept apart here.
# T1: GST-Rab10 (human Rab10)
# T1 sequence: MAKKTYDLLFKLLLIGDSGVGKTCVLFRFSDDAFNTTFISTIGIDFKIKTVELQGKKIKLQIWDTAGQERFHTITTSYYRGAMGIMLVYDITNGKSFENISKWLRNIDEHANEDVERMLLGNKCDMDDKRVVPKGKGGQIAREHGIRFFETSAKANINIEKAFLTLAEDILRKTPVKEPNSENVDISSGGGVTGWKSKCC
# T2: GST-Rab10 (human Rab10)
# T2 chain: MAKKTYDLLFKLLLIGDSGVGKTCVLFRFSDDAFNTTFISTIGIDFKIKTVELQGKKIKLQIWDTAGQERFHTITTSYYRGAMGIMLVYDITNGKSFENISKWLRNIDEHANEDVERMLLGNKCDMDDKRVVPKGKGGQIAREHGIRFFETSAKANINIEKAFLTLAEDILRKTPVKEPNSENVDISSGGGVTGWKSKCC
# T3: GST-Rab8A (dog Rab8A), P61007
# T3 chain: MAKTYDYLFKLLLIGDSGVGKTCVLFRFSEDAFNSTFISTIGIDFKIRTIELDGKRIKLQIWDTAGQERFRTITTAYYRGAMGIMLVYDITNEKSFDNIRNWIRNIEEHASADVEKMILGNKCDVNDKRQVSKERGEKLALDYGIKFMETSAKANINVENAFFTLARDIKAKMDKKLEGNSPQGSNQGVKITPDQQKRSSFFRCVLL
# What was measured:
# GST-Rab10 (human Rab10) [1] = test system: T1, GST-Rab10 (human Rab10)
# GST-Rab2A [GST: P08515] [2] = test system: GST-Rab2A [GST: P08515]
# GST-Rab8A (dog Rab8A) = GST-Rab8A (dog Rab8A) (UniProt P61007)
# GST-Rab8B [GST: P08515] [3] = test system: GST-Rab8B [GST: P08515]
# GST-Rab10 (human Rab10) [4] = target: T2, GST-Rab10 (human Rab10)
# [5] = target: GST-Rab14 (mouse Rab14), Q91V41
# GST-Rab2A [GST: P08515] [6] = target: GST-Rab2A [GST: P08515]; remark: listed apart in the source
# [7] = target: T3, GST-Rab8A (dog Rab8A), P61007
# GST-Rab8B [GST: P08515] [8] = target: GST-Rab8B [GST: P08515]; remark: listed apart in the source
# Sequence of GST-Rab14 (mouse Rab14), Q91V41 (Q91V41 whole entry, looked up): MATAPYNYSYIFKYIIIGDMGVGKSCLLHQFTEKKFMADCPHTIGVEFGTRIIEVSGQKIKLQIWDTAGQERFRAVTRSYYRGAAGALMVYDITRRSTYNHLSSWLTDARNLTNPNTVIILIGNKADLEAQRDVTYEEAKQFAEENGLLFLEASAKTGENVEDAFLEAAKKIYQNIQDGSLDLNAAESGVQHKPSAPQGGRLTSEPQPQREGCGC
molecule,measurement,setting,value
GST-GAP Arg/Lys (GST-GAP domain with Arg973 mutated to Lys),hydrolysis of Rab-bound [α^32P]GTP to GDP (thin layer chromatography),GST-Rab10 (human Rab10) [1],"For each of Rab 2A, 8A, 8B, 10, and 14, the GAP Arg/Lys construct exhibited no significant activity"
same,hydrolysis of Rab-bound [α^32P]GTP to GDP (thin layer chromatography),GST-Rab2A [GST: P08515] [2],"For each of Rab 2A, 8A, 8B, 10, and 14, the GAP Arg/Lys construct exhibited no significant activity"
same,hydrolysis of Rab-bound [α^32P]GTP to GDP (thin layer chromatography),GST-Rab8A (dog Rab8A),"For each of Rab 2A, 8A, 8B, 10, and 14, the GAP Arg/Lys construct exhibited no significant activity"
same,hydrolysis of Rab-bound [α^32P]GTP to GDP (thin layer chromatography),GST-Rab8B [GST: P08515] [3],"For each of Rab 2A, 8A, 8B, 10, and 14, the GAP Arg/Lys construct exhibited no significant activity"
AS160 GAP domain-GST fusion protein (protein) GASRDELQSRKVKLDYEEVGACQKEVLITWDKKLLNCRAKIRCDMEDIHTLLKEGVPKSRRGEIWQFLALQYRLRHRLPNKQQPPDISYKELLKQLTAQQHAILVDLGRTFPTHPYFSVQLGPGQLSLFNLLKAYSLLDKEVGYCQGISFVAGVLLLHMSEEQAFEMLKFLMYDLGFRKQYRPDMMSLQIQMYQLSRLLHDYHRDLYNHLEENEISPSLYAAPWFLTLFASQFSLGFVARVFDIIFLQGTEVIFKVALSLLSSQETLIMECESFENIVEFLKNTLPDMNTSEMEKIITQVFEMDISKQLHAYEVEYHVLQDELQESSYSCEDSETLEKLERANSQLKRQNMDLLEKLQVAHTKIQALESNLENLLTRETKMKSLIRTLEQEKMAYQKTVEQLRKLLPADALANCDLLLRDLNCNPNNKAKIGNKP,hydrolysis of Rab-bound [α^32P]GTP to GDP (thin layer chromatography),GST-Rab10 (human Rab10) [4],"the GAP domain markedly stimulated the hydrolysis of [α^32P]GTP bound to Rabs 2A, 8A, 8B, 10, and 14"
same,GAP activity in the presence of a 10-fold molar excess of GST as carrier protein,[5],the presence of excess GST did not inhibit the GAP activity
same,GAP assay with GST-GAP domain attached to glutathione beads,[5],the same molar amount of the GST-GAP domain attached to glutathione beads showed the expected activity against Rab14
same,hydrolysis of Rab-bound [α^32P]GTP to GDP (thin layer chromatography),[5],"the GAP domain markedly stimulated the hydrolysis of [α^32P]GTP bound to Rabs 2A, 8A, 8B, 10, and 14"
same,kcat/Km,[5],a kcat/Km value of 0.2 min^-1 µmolar^-1
same,rate of hydrolysis of the bound [α^32P]GTP with 130 nM GST-GAP domain,[5],approximately 3% per minute with 130 nM GST-GAP domain
same,hydrolysis of Rab-bound [α^32P]GTP to GDP (thin layer chromatography),GST-Rab2A [GST: P08515] [6],"the GAP domain markedly stimulated the hydrolysis of [α^32P]GTP bound to Rabs 2A, 8A, 8B, 10, and 14"
same,hydrolysis of Rab-bound [α^32P]GTP to GDP (thin layer chromatography),[7],"the GAP domain markedly stimulated the hydrolysis of [α^32P]GTP bound to Rabs 2A, 8A, 8B, 10, and 14"
same,hydrolysis of Rab-bound [α^32P]GTP to GDP (thin layer chromatography),GST-Rab8B [GST: P08515] [8],"the GAP domain markedly stimulated the hydrolysis of [α^32P]GTP bound to Rabs 2A, 8A, 8B, 10, and 14"
recombinant GAP domain without GST (protein) GASRDELQSRKVKLDYEEVGACQKEVLITWDKKLLNCRAKIRCDMEDIHTLLKEGVPKSRRGEIWQFLALQYRLRHRLPNKQQPPDISYKELLKQLTAQQHAILVDLGRTFPTHPYFSVQLGPGQLSLFNLLKAYSLLDKEVGYCQGISFVAGVLLLHMSEEQAFEMLKFLMYDLGFRKQYRPDMMSLQIQMYQLSRLLHDYHRDLYNHLEENEISPSLYAAPWFLTLFASQFSLGFVARVFDIIFLQGTEVIFKVALSLLSSQETLIMECESFENIVEFLKNTLPDMNTSEMEKIITQVFEMDISKQLHAYEVEYHVLQDELQESSYSCEDSETLEKLERANSQLKRQNMDLLEKLQVAHTKIQALESNLENLLTRETKMKSLIRTLEQEKMAYQKTVEQLRKLLPADALANCDLLLRDLNCNPNNKAKIGNKP,GAP activity compared with that of GST-GAP domain,[5],no difference was observed
recombinant full-length FLAG-tagged AS160 (protein) MEPPSCIQDEPFPHPLEPEPGVSAQPGPGKPSDKRFRLWYVGGSCLDHRTTLPMLPWLMAEIRRRSQKPEAGGCGAPAAREVILVLSAPFLRCVPAPGAGASGGTSPSATQPNPAVFIFEHKAQHISRFIHNSHDLTYFAYLIKAQPDDPESQMACHVFRATDPSQVPDVISSIRQLSKAAMKEDAKPSKDNEDAFYNSQKFEVLYCGKVTVTHKKAPSSLIDDCMEKFSLHEQQRLKIQGEQRGPDPGEDLADLEVVVPGSPGDCLPEEADGTDTHLGLPAGASQPALTSSRVCFPERILEDSGFDEQQEFRSRCSSVTGVQRRVHEGSQKSQPRRRHASAPSHVQPSDSEKNRTMLFQVGRFEINLISPDTKSVVLEKNFKDISSCSQGIKHVDHFGFICRESPEPGLSQYICYVFQCASESLVDEVMLTLKQAFSTAAALQSAKTQIKLCEACPMHSLHKLCERIEGLYPPRAKLVIQRHLSSLTDNEQADIFERVQKMKPVSDQEENELVILHLRQLCEAKQKTHVHIGEGPSTISNSTIPENATSSGRFKLDILKNKAKRSLTSSLENIFSRGANRMRGRLGSVDSFERSNSLASEKDYSPGDSPPGTPPASPPSSAWQTFPEEDSDSPQFRRRAHTFSHPPSSTKRKLNLQDGRAQGVRSPLLRQSSSEQCSNLSSVRRMYKESNSSSSLPSLHTSFSAPSFTAPSFLKSFYQNSGRLSPQYENEIRQDTASESSDGEGRKRTSSTCSNESLSVGGTSVTPRRISWRQRIFLRVASPMNKSPSAMQQQDGLDRNELLPLSPLSPTMEEEPLVIFLSGEDDPEKIEERKKSKELRSLWRKAIHQQILLLRMEKENQKLEGASRDELQSRKVKLDYEEVGACQKEVLITWDKKLLNCRAKIRCDMEDIHTLLKEGVPKSRRGEIWQFLALQYRLRHRLPNKQQPPDISYKELLKQLTAQQHAILVDLGRTFPTHPYFSVQLGPGQLSLFNLLKAYSLLDKEVGYCQGISFVAGVLLLHMSEEQAFEMLKFLMYDLGFRKQYRPDMMSLQIQMYQLSRLLHDYHRDLYNHLEENEISPSLYAAPWFLTLFASQFSLGFVARVFDIIFLQGTEVIFKVALSLLSSQETLIMECESFENIVEFLKNTLPDMNTSEMEKIITQVFEMDISKQLHAYEVEYHVLQDELQESSYSCEDSETLEKLERANSQLKRQNMDLLEKLQVAHTKIQALESNLENLLTRETKMKSLIRTLEQEKMAYQKTVEQLRKLLPADALANCDLLLRDLNCNPNNKAKIGNKP,GAP assay with protein attached to anti-FLAG beads,[5],"The full-length AS160 exhibited no significant activity above that of the Arg973Lys mutant with Rabs 2A, 8A, and 14 as substrates"
same,GAP assay with protein attached to anti-FLAG beads,GST-Rab2A [GST: P08515] [6],"The full-length AS160 exhibited no significant activity above that of the Arg973Lys mutant with Rabs 2A, 8A, and 14 as substrates"
same,GAP assay with protein attached to anti-FLAG beads,[7],"The full-length AS160 exhibited no significant activity above that of the Arg973Lys mutant with Rabs 2A, 8A, and 14 as substrates"
